Reference: patent publication US20180016354A1 (Merck KGaA, published 2018)
Residue numbers refer to the chain shown, from its start.

How the values were obtained:
CD16a receptor (FcγIIIa) [1] = molecular target: T1, CD16a receptor (FcγIIIa) (UniProt P08637 17-254, limits assumed); assay: CD16a HTRF cellular binding assay, competition with labeled human IgG
T1 construct: whole, on cells
Experimental: FIG. 14: Binding of antibodies to CD16a receptor. Binding was measured using CD16a HTRF cellular binding assay (CisBio). Measurement was performed in duplicates.

[2] = molecular target: T2, EGFR (on EGFR-expressing A431 cells) (UniProt P00533 25-1210, limits assumed); assay: flow cytometry on A431 cells
T2 construct: whole, on cells; A431 is a human cell line; also called EGFR-positive cells; EGFR-overexpressing A431 cells

[3] = molecular target: T2, EGFR (on EGFR-expressing A431 cells); assay: flow cytometry on EGFR-positive A431 cells
[4] = molecular target: T2, EGFR (on EGFR-expressing A431 cells); assay: cell-based or functional assay
[5] = molecular target: CD3 (on activated primary T cells) (UniProt P07766 23-207); assay: cell-based or functional assay
CD16a receptor (FcγIIIa) [6] = molecular target: T1, CD16a receptor (FcγIIIa); assay: cell-based or functional assay

T1 sequence (P08637 17-254 limits assumed): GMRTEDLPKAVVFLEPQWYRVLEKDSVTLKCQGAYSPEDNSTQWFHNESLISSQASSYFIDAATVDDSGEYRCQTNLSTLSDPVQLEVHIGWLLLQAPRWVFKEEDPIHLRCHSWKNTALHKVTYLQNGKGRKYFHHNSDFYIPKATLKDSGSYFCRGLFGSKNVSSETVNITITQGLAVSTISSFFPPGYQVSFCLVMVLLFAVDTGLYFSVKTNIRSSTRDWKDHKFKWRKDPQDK

B1: One-armed anti-CD16 with the unengineered 3G8 Fab fused to the SEED AG heavy chain (antibody)
heavy: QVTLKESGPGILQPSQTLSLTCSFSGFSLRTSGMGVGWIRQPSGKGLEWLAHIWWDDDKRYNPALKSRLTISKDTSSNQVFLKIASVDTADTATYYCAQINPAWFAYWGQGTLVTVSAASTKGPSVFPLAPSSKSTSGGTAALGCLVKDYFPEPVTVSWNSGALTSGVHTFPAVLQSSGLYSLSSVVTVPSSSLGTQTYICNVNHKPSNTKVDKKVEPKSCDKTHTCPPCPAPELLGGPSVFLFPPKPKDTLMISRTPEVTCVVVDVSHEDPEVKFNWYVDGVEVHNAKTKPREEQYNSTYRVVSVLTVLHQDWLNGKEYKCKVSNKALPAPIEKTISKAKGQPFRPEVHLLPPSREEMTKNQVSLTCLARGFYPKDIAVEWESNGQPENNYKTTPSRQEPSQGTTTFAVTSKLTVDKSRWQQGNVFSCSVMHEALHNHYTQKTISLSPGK
chain: EPKSSDKTHTCPPCPAPELLGGPSVFLFPPKPKDTLMISRTPEVTCVVVDVSHEDPEVKFNWYVDGVEVHNAKTKPREEQYNSTYRVVSVLTVLHQDWLNGKEYKCKVSNKALPAPIEKTISKAKGQPREPQVYTLPPPSEELALNELVTLTCLVKGFYPSDIAVEWLQGSQELPREKYLTWAPVLDSDGSFFLYSILRVAAEDWKKGDTFSCSVMHEALHNHYTQKSLDRSPGK
light: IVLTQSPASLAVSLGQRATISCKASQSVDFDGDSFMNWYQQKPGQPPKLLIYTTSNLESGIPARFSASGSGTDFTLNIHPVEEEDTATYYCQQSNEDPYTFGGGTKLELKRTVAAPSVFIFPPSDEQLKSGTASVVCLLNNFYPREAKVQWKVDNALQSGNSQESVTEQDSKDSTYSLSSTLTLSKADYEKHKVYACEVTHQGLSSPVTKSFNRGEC
notes: One Fab arm only; also called one-armed anti-CD16 antibody
IC50 (CD16a receptor (FcγIIIa) [1]): ~0.1 nM

B2: one-armed anti-EGFR SEED antibody with SEED CH3 domain-exchanged Fab, Variant 2 (antibody)
heavy: QVQLVQSGAEVKKPGASVKVSCKASGYTFTSHWMHWVRQAPGQGLEWIGEFNPSNGRTNYNEKFKSKATMTVDTSTNTAYMELSSLRSEDTAVYYCASRDYDYDGRYFDYWGQGTLVTVSSASTKGEPQVYTLPPPSEELALNELVTLTCLVKGFYPSDIAVEWLQGSQELPREKYLTWAPVLDSDGSFFLYSILRVAAEDWKKGDTFSCSVMHEALHNHYTQKSLDRSKSCDKTHTCPPCPAPELLGGPSVFLFPPKPKDTLMISRTPEVTCVVVDVSHEDPEVKFNWYVDGVEVHNAKTKPREEQYNSTYRVVSVLTVLHQDWLNGKEYKCKVSNKALPAPIEKTISKAKGQPFRPEVHLLPPSREEMTKNQVSLTCLARGFYPKDIAVEWESNGQPENNYKTTPSRQEPSQGTTTFAVTSKLTVDKSRWQQGNVFSCSVMHEALHNHYTQKTISLSPGK
light: DIQMTQSPSSLSASVGDRVTITCSASSSVTYMYWYQQKPGKAPKLLIYDTSNLASGVPSRFSGSGSGTDYTFTISSLQPEDIATYYCQQWSSHIFTFGQGTKVEIKRTVAPEVHLLPPSREEMTKNQVSLTCLARGFYPKDIAVEWESNGQPENNYKTTPSRQEPSQGTTTFAVTSKLTVDKSRWQQGNVFSCSVMHEALHNHYTQKTISLSGEC
chain: B1 chain
notes: hu425 Fv; one Fab arm only; also called CH3-SEED variant 2
binding result [2]: binds

B3: Unengineered one-armed anti-EGFR antibody (CH1/CL hu425 Fab on SEED AG heavy chain, with huFc_GA SEED) (antibody)
heavy: QVQLVQSGAEVKKPGASVKVSCKASGYTFTSHWMHWVRQAPGQGLEWIGEFNPSNGRTNYNEKFKSKATMTVDTSTNTAYMELSSLRSEDTAVYYCASRDYDYDGRYFDYWGQGTLVTVSSASTKGPSVFPLAPSSKSTSGGTAALGCLVKDYFPEPVTVSWNSGALTSGVHTFPAVLQSSGLYSLSSVVTVPSSSLGTQTYICNVNHKPSNTKVDKKVEPKSCDKTHTCPPCPAPELLGGPSVFLFPPKPKDTLMISRTPEVTCVVVDVSHEDPEVKFNWYVDGVEVHNAKTKPREEQYNSTYRVVSVLTVLHQDWLNGKEYKCKVSNKALPAPIEKTISKAKGQPFRPEVHLLPPSREEMTKNQVSLTCLARGFYPKDIAVEWESNGQPENNYKTTPSRQEPSQGTTTFAVTSKLTVDKSRWQQGNVFSCSVMHEALHNHYTQKTISLSPGK
chain: B1 chain
light: DIQMTQSPSSLSASVGDRVTITCSASSSVTYMYWYQQKPGKAPKLLIYDTSNLASGVPSRFSGSGSGTDYTFTISSLQPEDIATYYCQQWSSHIFTFGQGTKVEIKRTVAAPSVFIFPPSDEQLKSGTASVVCLLNNFYPREAKVQWKVDNALQSGNSQESVTEQDSKDSTYSLSSTLTLSKADYEKHKVYACEVTHQGLSSPVTKSFNRGEC
notes: One Fab arm only (monovalent); also called unengineered Fab one-armed anti-EGFR; control antibody
binding result [2]: binds

B4: one-armed domain-exchanged KiH antibody with SEED CH3 domains in the Fab, Variant 2 (antibody)
heavy: not shown
light: B2 light
chain: not shown
notes: hu425 Fv; one Fab arm only; also called one-armed KiH antibody, CH3-SEED variant 2
binding result [3]: binds

B5: domain-exchanged heterodimeric bispecific antibody 1, BsAb1 (anti-CD3× anti-EGFR CH3-KiH) (bispecific antibody, human IgG1, kappa)
heavy 1: QVQLVQSGAEVKKPGASVKVSCKASGYTFTSHWMHWVRQAPGQGLEWIGEFNPSNGRTNYNEKFKSKATMTVDTSTNTAYMELSSLRSEDTAVYYCASRDYDYDGRYFDYWGQGTLVTVSSASTKGEPQVYTLPPSRDELTKNQVSLYCLVKGFYPSDIAVEWESNGQPENNYKTTPPVLDSDGSFFLYSKLTVDKSRWQQGNVFSCSVMHEALHNHYTQKSLSLSKSCDKTHTCPPCPAPELLGGPSVFLFPPKPKDTLMISRTPEVTCVVVDVSHEDPEVKFNWYVDGVEVHNAKTKPREEQYNSTYRVVSVLTVLHQDWLNGKEYKCKVSNKALPAPIEKTISKAKGQPFRPEVHLLPPSREEMTKNQVSLTCLARGFYPKDIAVEWESNGQPENNYKTTPSRQEPSQGTTTFAVTSKLTVDKSRWQQGNVFSCSVMHEALHNHYTQKTISLSPGK
heavy 2: QVQLVQSGGGVVQPGRSLRLSCKASGYTFTRYTMHWVRQAPGKGLEWIGYINPSRGYTNYNQKVKDRFTISRDNSKNTAFLQMDSLRPEDTGVYFCARYYDDHYCLDYWGQGTPVTVSSASTKGPSVFPLAPSSKSTSGGTAALGCLVKDYFPEPVTVSWNSGALTSGVHTFPAVLQSSGLYSLSSVVTVPSSSLGTQTYICNVNHKPSNTKVDKKVEPKSCDKTHTCPPCPAPELLGGPSVFLFPPKPKDTLMISRTPEVTCVVVDVSHEDPEVKFNWYVDGVEVHNAKTKPREEQYNSTYRVVSVLTVLHQDWLNGKEYKCKVSNKALPAPIEKTISKAKGQPREPQVYTLPPPSEELALNELVTLTCLVKGFYPSDIAVEWLQGSQELPREKYLTWAPVLDSDGSFFLYSILRVAAEDWKKGDTFSCSVMHEALHNHYTQKSLDRSPGK
light 1: DIQMTQSPSSLSASVGDRVTITCSASSSVTYMYWYQQKPGKAPKLLIYDTSNLASGVPSRFSGSGSGTDYTFTISSLQPEDIATYYCQQWSSHIFTFGQGTKVEIKRTVAEPQVYTLPPSRDELTKNQVSLTCLVKGFYPSDIAVEWESNGQPENNYKTTPPVLDSDGSFFLTSKLTVDKSRWQQGNVFSCSVMHEALHNHYTQKSLSLSGEC
light 2: DIQMTQSPSSLSASVGDRVTITCSASSSVSYMNWYQQTPGKAPKRWIYDTSKLASGVPSRFSGSGSGTDYTFTISSLQPEDIATYYCQQWSSNPFTFGQGTKLQITRTVAAPSVFIFPPSDEQLKSGTASVVCLLNNFYPREAKVQWKVDNALQSGNSQESVTEQDSKDSTYSLSSTLTLSKADYEKHKVYACEVTHQGLSSPVTKSFNRGEC
notes: hu425 (Matuzumab) Fv in the CH3 domain-exchanged Fab arm, OKT3 Fv in the native Fab arm; SEED AG/GA Fc; also called domain-exchanged heterodimeric antibody 1; domain-exchanged bispecific antibody 1
EC50 [2]: ~7 nM
EC50 of redirected lysis of A431 cells by activated T cells (LDH release) [4]: 0.1 to 0.3 nM
EC50 of redirected lysis of A431 cells by activated T cells (LDH release) [5]: 0.1 to 0.3 nM

B6: Effector Negative (EN) isotype domain-exchanged bispecific antibody BsAb2 (anti-CD16× anti-EGFR CH3-KiH), BsAb2 EN (bispecific antibody, human IgG1, kappa)
heavy 1: QVQLVQSGAEVKKPGASVKVSCKASGYTFTSHWMHWVRQAPGQGLEWIGEFNPSNGRTNYNEKFKSKATMTVDTSTNTAYMELSSLRSEDTAVYYCASRDYDYDGRYFDYWGQGTLVTVSSASTKGEPQVYTLPPSRDELTKNQVSLYCLVKGFYPSDIAVEWESNGQPENNYKTTPPVLDSDGSFFLYSKLTVDKSRWQQGNVFSCSVMHEALHNHYTQKSLSLSKSCDKTHTCPPCPAPPVAGPSVFLFPPKPKDTLMISRTPEVTCVVVDVSHEDPEVQFNWYVDGVEVHNAKTKPREEQAQSTFRVVSVLTVVHQDWLNGKEYKCKVSNKGLPAPIEKTISKTKGQPFRPEVHLLPPSREEMTKNQVSLTCLARGFYPKDIAVEWESNGQPENNYKTTPSRQEPSQGTTTFAVTSKLTVDKSRWQQGNVFSCSVMHEALHNHYTQKTISLSPGK
heavy 2: not shown
light 1: B5 light 1
light 2: not shown
notes: also called EN BsAb2; effector negative IgG2 variant of BsAb2
IC50 (CD16a receptor (FcγIIIa) [1]): ~3.6 nM
EC50 of lysis of A431 cells by redirected NK cells (LDH release) [4]: 0.037 nM
lysis of A431 cells by redirected NK cells (LDH release) [4]: ≤ 50%
EC50 of lysis of A431 cells by redirected NK cells (LDH release) (CD16a receptor (FcγIIIa) [6]): 0.037 nM
lysis of A431 cells by redirected NK cells (LDH release) (CD16a receptor (FcγIIIa) [6]): ≤ 50%

B7: domain-exchanged bispecific antibody 2, BsAb2 (anti-CD16× anti-EGFR CH3-KiH) (bispecific antibody, human IgG1, kappa)
heavy 1: B5 heavy 1
heavy 2: not shown
light 1: B5 light 1
light 2: not shown
notes: hu425 Fv in the domain-exchanged Fab arm, murine 3G8 (anti-CD16) Fv in the native Fab arm; also called effector positive BsAb2 variant
IC50 (CD16a receptor (FcγIIIa) [1]): ~0.3 nM
EC50 of lysis of A431 cells by redirected NK cells (LDH release) [4]: 0.01 nM
lysis of A431 cells by redirected NK cells (LDH release) [4]: ≤ 50%
EC50 of lysis of A431 cells by redirected NK cells (LDH release) (CD16a receptor (FcγIIIa) [6]): 0.01 nM
lysis of A431 cells by redirected NK cells (LDH release) (CD16a receptor (FcγIIIa) [6]): ≤ 50%

B8: one-armed domain-exchanged KiH antibody with Charge pair CH3 domains in the Fab, Variant 1 (antibody)
heavy: not shown
light: B5 light 1 with D122E, L124M, K158D, T173Y, K175D
chain: not shown
notes: hu425 Fv; one Fab arm only; also called one-armed KiH antibody, Charge pair variant 1
binding result [3]: binds

B9: one-armed domain-exchanged KiH antibody with Azymetric CH3 domains in the Fab, Variant 1 (antibody)
heavy: not shown
light: B5 light 1 with T116V, D122E, L124M, T132L, K158L, T160W, T173Y
chain: not shown
notes: hu425 Fv; one Fab arm only; also called one-armed KiH antibody, CH3-Azymetric variant 1
binding result [3]: binds

B10: one-armed domain-exchanged KiH antibody with Charge pair CH3 domains in the Fab, Variant 2 (antibody)
heavy: not shown
light: B5 light 1 with D122K, L124M, D165K, T173Y
chain: not shown
notes: hu425 Fv; one Fab arm only; also called one-armed KiH antibody, Charge pair variant 2
binding result [3]: binds

B11: one-armed domain-exchanged KiH antibody with Azymetric CH3 domains in the Fab, Variant 2 (antibody)
heavy: not shown
light: B5 light 1 with T116V, L117Y, D122E, L124M, F171A, T173V
chain: not shown
notes: hu425 Fv; one Fab arm only; also called one-armed KiH antibody, CH3-Azymetric variant 2
binding result [3]: binds

B12: one-armed domain-exchanged KiH antibody with SEED CH3 domains in the Fab, Variant 1 (antibody)
heavy: not shown
light: DIQMTQSPSSLSASVGDRVTITCSASSSVTYMYWYQQKPGKAPKLLIYDTSNLASGVPSRFSGSGSGTDYTFTISSLQPEDIATYYCQQWSSHIFTFGQGTKVEIKRTVAEPQVYTLPPPSEELALNELVTLTCLVKGFYPSDIAVEWLQGSQELPREKYLTWAPVLDSDGSFFLYSILRVAAEDWKKGDTFSCSVMHEALHNHYTQKSLDRSGEC
chain: not shown
notes: hu425 Fv; one Fab arm only; also called one-armed KiH antibody, CH3-SEED variant 1
binding result [3]: binds
